# Results published in the supplement of paper PMC9112550, “Optimization of the antimicrobial peptide Bac7 by deep mutational scanning” (BMC Biology, 2022).
# System: Escherichia coli TOP10
# Experiment: shrunken log2 fold change of peptide-encoding DNA abundance (4.5 h post-induction vs induction); higher = less antimicrobial activity (less host growth inhibition)
# Conditions: time post-induction: 4.5 h; library: site-saturation at positions 5, 18, 19, 20
# 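Further: peptides expressed intracellularly from a pBAD plasmid library in pooled LB shake-flask culture, induced with 0.3% L-arabinose, DNA abundance read by NGS, three biological replicates, DESeq2 with apeglm shrinkage.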
row,Sequence,shrunken log2 fold change
1,RRIRVRPPRLPRPRPRPGTMPRP,-0.122
2,RRIRWRPPRLPRPRPRPGKQPRP,0.151
3,RRIRMRPPRLPRPRPRPIRYPRP,0.0982
4,RRIRKRPPRLPRPRPRPKTTPRP,0.0195
5,RRIRIRPPRLPRPRPRPWQCPRP,0.034
6,RRIRYRPPRLPRPRPRPLIDPRP,-0.00288
7,RRIRQRPPRLPRPRPRPTTGPRP,0.0143
8,RRIRERPPRLPRPRPRPMKPPRP,-0.0018
9,RRIRERPPRLPRPRPRPIKHPRP,-0.967
10,RRIRYRPPRLPRPRPRPSPTPRP,-0.167
11,RRIRIRPPRLPRPRPRPFNQPRP,-0.977
12,RRIRWRPPRLPRPRPRPLYEPRP,-0.255
13,RRIRLRPPRLPRPRPRPKRPPRP,-0.0353
14,RRIRRRPPRLPRPRPRPIHLPRP,-0.0465
15,RRIRLRPPRLPRPRPRPVNVPRP,-0.00443
16,RRIRWRPPRLPRPRPRPEFHPRP,0.227
17,RRIRVRPPRLPRPRPRPKLFPRP,0.0793
18,RRIRPRPPRLPRPRPRPCVQPRP,0.283
19,RRIRGRPPRLPRPRPRPWKVPRP,-0.00197
20,RRIRIRPPRLPRPRPRPVSQPRP,-0.0669
21,RRIRLRPPRLPRPRPRPQWPPRP,0.28
22,RRIRHRPPRLPRPRPRPRSLPRP,0.295
23,RRIRKRPPRLPRPRPRPYTKPRP,-0.138
24,RRIRERPPRLPRPRPRPWIFPRP,-0.101
25,RRIRKRPPRLPRPRPRPTCRPRP,0.289

row,Sequence,shrunken log2 fold change
1,RRIRFRPPRLPRPRPRPCGCPRP,-0.0484
2,RRIRKRPPRLPRPRPRPGKKPRP,-0.0204
3,RRIRDRPPRLPRPRPRPNGCPRP,-0.00152
4,RRIRHRPPRLPRPRPRPKCWPRP,0.123
5,RRIRMRPPRLPRPRPRPWWQPRP,0.183
6,RRIRTRPPRLPRPRPRPELCPRP,-0.101
7,RRIRSRPPRLPRPRPRPQQPPRP,-0.273
8,RRIRLRPPRLPRPRPRPYLSPRP,-0.0116
9,RRIRTRPPRLPRPRPRPNQMPRP,-0.334
10,RRIRARPPRLPRPRPRPFLTPRP,0.085
11,RRIRTRPPRLPRPRPRPCAVPRP,-0.262
12,RRIRLRPPRLPRPRPRPTECPRP,-0.243
13,RRIRQRPPRLPRPRPRPNDNPRP,-0.577
14,RRIRLRPPRLPRPRPRPYRSPRP,-0.0017
15,RRIRDRPPRLPRPRPRPKQLPRP,0.217
16,RRIRQRPPRLPRPRPRPNDCPRP,0.0531
17,RRIRIRPPRLPRPRPRPKIFPRP,0.27
18,RRIRQRPPRLPRPRPRPGHNPRP,0.0106
19,RRIRQRPPRLPRPRPRPVPTPRP,0.0766
20,RRIRKRPPRLPRPRPRPVQCPRP,0.0223
21,RRIRNRPPRLPRPRPRPNPSPRP,-0.00451
22,RRIRARPPRLPRPRPRPQQNPRP,0.166
23,RRIRRRPPRLPRPRPRPLDAPRP,0.472
24,RRIRKRPPRLPRPRPRPRTSPRP,0.525
25,RRIRMRPPRLPRPRPRPGRVPRP,0.919

row,Sequence,shrunken log2 fold change
1,RRIRFRPPRLPRPRPRPLMIPRP,-0.266
2,RRIRWRPPRLPRPRPRPSIAPRP,0.0837
3,RRIRGRPPRLPRPRPRPNGAPRP,0.827
4,RRIRPRPPRLPRPRPRPIASPRP,-0.0044
5,RRIRKRPPRLPRPRPRPVTWPRP,0.0106
6,RRIRLRPPRLPRPRPRPVCEPRP,0.39
7,RRIRYRPPRLPRPRPRPFGRPRP,-0.0018
8,RRIRERPPRLPRPRPRPKRMPRP,-0.0497
9,RRIRTRPPRLPRPRPRPYLDPRP,-0.381
10,RRIRIRPPRLPRPRPRPFTFPRP,-0.148
11,RRIRHRPPRLPRPRPRPYSLPRP,-0.319
12,RRIRSRPPRLPRPRPRPGAEPRP,0.606
13,RRIRYRPPRLPRPRPRPQGIPRP,-0.236
14,RRIRPRPPRLPRPRPRPNKCPRP,-0.26
15,RRIRWRPPRLPRPRPRPDVVPRP,0.0719
16,RRIRQRPPRLPRPRPRPDGAPRP,0.0271
17,RRIRERPPRLPRPRPRPMIQPRP,-0.176
18,RRIRHRPPRLPRPRPRPIFTPRP,-0.191
19,RRIRARPPRLPRPRPRPNISPRP,0.0983
20,RRIRRRPPRLPRPRPRPWHTPRP,-0.456
21,RRIRHRPPRLPRPRPRPGWQPRP,0.33
22,RRIRGRPPRLPRPRPRPMCPPRP,0.0883
23,RRIRHRPPRLPRPRPRPFIRPRP,0.00659
24,RRIRERPPRLPRPRPRPAITPRP,-0.401
25,RRIRHRPPRLPRPRPRPNHLPRP,-0.0856

row,Sequence,shrunken log2 fold change
1,RRIRYRPPRLPRPRPRPWMAPRP,-0.288
2,RRIRFRPPRLPRPRPRPIRYPRP,-0.125
3,RRIRSRPPRLPRPRPRPNLGPRP,-0.0959
4,RRIRKRPPRLPRPRPRPLCAPRP,0.604
5,RRIRRRPPRLPRPRPRPWEMPRP,-0.171
6,RRIRRRPPRLPRPRPRPQEHPRP,1.34
7,RRIRRRPPRLPRPRPRPPNAPRP,1.06
8,RRIRQRPPRLPRPRPRPWDVPRP,-0.0187
9,RRIRCRPPRLPRPRPRPCLKPRP,-0.277
10,RRIRCRPPRLPRPRPRPCQYPRP,0.0234
11,RRIRERPPRLPRPRPRPAYEPRP,-0.00975
12,RRIRQRPPRLPRPRPRPPQLPRP,0.424
13,RRIRDRPPRLPRPRPRPCPFPRP,-0.0587
14,RRIRFRPPRLPRPRPRPDSSPRP,-0.055
15,RRIRKRPPRLPRPRPRPSALPRP,0.271
16,RRIRYRPPRLPRPRPRPCVIPRP,0.0735
17,RRIRQRPPRLPRPRPRPASGPRP,-0.00438
18,RRIRIRPPRLPRPRPRPRLIPRP,-0.199
19,RRIRCRPPRLPRPRPRPSIHPRP,-0.929
20,RRIRSRPPRLPRPRPRPWGAPRP,0.0522
21,RRIRNRPPRLPRPRPRPWLVPRP,-0.151
22,RRIRRRPPRLPRPRPRPGKWPRP,0.152
23,RRIRMRPPRLPRPRPRPYHMPRP,-0.000687
24,RRIRSRPPRLPRPRPRPDRIPRP,-0.249
25,RRIRPRPPRLPRPRPRPIFYPRP,-0.102

row,Sequence,shrunken log2 fold change
1,RRIRVRPPRLPRPRPRPAKTPRP,0.0432
2,RRIRWRPPRLPRPRPRPANGPRP,-0.186
3,RRIRSRPPRLPRPRPRPAIRPRP,-0.0385
4,RRIRMRPPRLPRPRPRPGDNPRP,-0.00193
5,RRIRMRPPRLPRPRPRPYGTPRP,-0.411
6,RRIRVRPPRLPRPRPRPNQVPRP,-0.185
7,RRIRWRPPRLPRPRPRPINEPRP,0.402
8,RRIRCRPPRLPRPRPRPYMEPRP,-0.428
9,RRIRARPPRLPRPRPRPYGPPRP,-0.264
10,RRIRHRPPRLPRPRPRPQFTPRP,-0.182
11,RRIRYRPPRLPRPRPRPFQAPRP,-0.464
12,RRIRMRPPRLPRPRPRPLHDPRP,0.487
13,RRIRSRPPRLPRPRPRPHEKPRP,0.0101
14,RRIRERPPRLPRPRPRPLSNPRP,0.0169
15,RRIRERPPRLPRPRPRPCWEPRP,-0.0225
16,RRIRQRPPRLPRPRPRPCPQPRP,-0.153
17,RRIRIRPPRLPRPRPRPNRWPRP,-0.0394
18,RRIRMRPPRLPRPRPRPFSWPRP,0.0956
19,RRIRLRPPRLPRPRPRPHETPRP,-0.236
20,RRIRWRPPRLPRPRPRPQGNPRP,-1.12
21,RRIRERPPRLPRPRPRPQSQPRP,0.0662
22,RRIRFRPPRLPRPRPRPDLVPRP,-0.0465
23,RRIRIRPPRLPRPRPRPPEYPRP,-0.186
24,RRIRMRPPRLPRPRPRPMNVPRP,-0.147
25,RRIRSRPPRLPRPRPRPSVKPRP,-0.068

row,Sequence,shrunken log2 fold change
1,RRIRLRPPRLPRPRPRPCRLPRP,-0.286
2,RRIRFRPPRLPRPRPRPDCGPRP,-0.107
3,RRIRRRPPRLPRPRPRPSHRPRP,-0.00626
4,RRIRWRPPRLPRPRPRPMPPPRP,0.411
5,RRIRFRPPRLPRPRPRPWMVPRP,-0.227
6,RRIRFRPPRLPRPRPRPSERPRP,-0.0251
7,RRIRFRPPRLPRPRPRPLRAPRP,0.821
8,RRIRIRPPRLPRPRPRPHKPPRP,-0.00445
9,RRIRWRPPRLPRPRPRPDFWPRP,0.582
10,RRIRFRPPRLPRPRPRPKGKPRP,0.195
11,RRIRFRPPRLPRPRPRPWMFPRP,-0.451
12,RRIRERPPRLPRPRPRPCIKPRP,-0.363
13,RRIRIRPPRLPRPRPRPGKNPRP,-0.597
14,RRIRFRPPRLPRPRPRPDTLPRP,-0.0946
15,RRIRARPPRLPRPRPRPPIVPRP,-0.0791
16,RRIRHRPPRLPRPRPRPTHKPRP,0.0457
17,RRIRCRPPRLPRPRPRPKRSPRP,0.235
18,RRIRVRPPRLPRPRPRPDPVPRP,-0.00845
19,RRIRPRPPRLPRPRPRPIEVPRP,-0.113
20,RRIRQRPPRLPRPRPRPYLLPRP,-0.0483
21,RRIRNRPPRLPRPRPRPRCHPRP,-0.572
22,RRIRNRPPRLPRPRPRPMTHPRP,-0.405
23,RRIRIRPPRLPRPRPRPCCSPRP,-1.1
24,RRIRNRPPRLPRPRPRPSMNPRP,-0.578
25,RRIRIRPPRLPRPRPRPYMRPRP,0.0163
